This note sets out measurements from US20160137696A1 (Bristol-Myers Squibb, published 2016).

Starred links: 1 amine or outer side, 2 acyl side, 3 side chain; linkers in the order of their positions; H or OH if unused. Positions of bridges follow the written chain, without caps; N, C: chain ends. Non-standard residues stand in square brackets, D forms with d. Groups on a side chain read outwards from the residue. Primed or numbered codes have the meaning given here. No end group written: not given here. *: point of attachment. PEG8′ = PEG8 unit (23-azido-3,6,9,12,15,18,21-heptaoxatricosyl, i.e. an eight-unit PEG spacer) linking the triazole to vitamin E succinate; Pra′ = propargylglycine (built in as LPH), clicked to a 1-substituted triazol-4-yl-alanine, O=C([C@H](Cc1cn([*:3])nn1)N[*:1])[*:2]; X1 = (S)‑3‑carboxy‑3‑(15-carboxypentadecanoylamino)propyl, O=C(O)CCCCCCCCCCCCCCC(=O)N[C@@H](CC*)C(=O)O; Pra″ = its azide, alkyne or alkene has reacted where a group follows in round brackets; X2 = (S)‑3‑carboxy‑3‑palmitamidopropyl, CCCCCCCCCCCCCCCC(=O)N[C@@H](CC*)C(=O)O; Phe(4-OMe)″ = p-methoxyphenylalanine, COc1ccc(C[C@H](N[*:1])C(=O)[*:2])cc1; Pra(3) = propargylglycine, clicked to an azide to give a triazolyl-alanine; triazole = 1,2,3-triazole formed by click of the Pra alkyne with the azide; Trp(1-CH2CO) = O=C([C@H](Cc1cn(CC(=O)[*:3])c2ccccc12)N[*:1])[*:2]; Tyr(Me) = O-methyl-tyrosine, COc1ccc(C[C@H](N[*:1])C(=O)[*:2])cc1; C18 diacid = O=C(O)CCCCCCCCCCCCCCCCC(=O)*; Phe(4-F) = N[C@@H](Cc1ccc(F)cc1)C(=O)O; γGlu = O=C(O)[C@H](CCC(=O)[*:2])N[*:1]; Hyp = O=C(O)[C@@H]1C[C@@H](O)CN1; NMeF = CN[C@@H](Cc1ccccc1)C(=O)O; F3Phe = trifluoro-phenylalanine; dHyp = O=C(O)[C@H]1C[C@H](O)CN1; NMeNle = CCCC[C@H](NC)C(=O)O; Suc = O=C(CCC(=O)[*:2])[*:1]; triazole″ = not defined here; Pip = O=C(O)[C@@H]1CCCCN1; NMeA = CN[C@@H](C)C(=O)O; Pra = C#CC[C@H](N)C(=O)O; Dab = NCC[C@H](N)C(=O)O; Dap = NC[C@H](N)C(=O)O

The target of the test is T1, Recombinant Human PD-L1-TVMV-His (human, UniProt Q9NZQ7 19-239).
T1 construct: expressed in HEK293T cells; also called PD-L1-His; hPD-L1(19-239)-TVMV-His
T1 sequence (Q9NZQ7 other isoform, or with tags, fused parts or gaps limits assumed): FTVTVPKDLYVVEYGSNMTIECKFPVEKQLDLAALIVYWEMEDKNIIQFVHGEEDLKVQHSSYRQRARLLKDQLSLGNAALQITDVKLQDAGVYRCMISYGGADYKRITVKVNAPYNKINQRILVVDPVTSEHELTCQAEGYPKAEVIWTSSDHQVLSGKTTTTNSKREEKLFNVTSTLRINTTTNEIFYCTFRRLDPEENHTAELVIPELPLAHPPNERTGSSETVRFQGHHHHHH
Description: HTRF vs PD-1-Ig; B = IC50 0.01-0.099 µM. The protocol:
Homogenous Time-Resolved Fluorescence (HTRF) Assays of Binding of Soluble PD-1 to Soluble PD-L1. Soluble PD-1 and soluble PD-L1 refers to proteins with carboxyl-end truncations that remove the transmembrane-spanning regions and are fused to heterologous sequences, specifically the Fc portion of the human immunoglobuling G sequence (Ig) or the hexahistidine epitope tag (His). All binding studies were performed in an HTRF assay buffer consisting of dPBS supplemented with 0.1% (w/v) bovine serum albumin and 0.05% (v/v) Tween-20. For the PD-1-Ig/PD-L1-His binding assay, inhibitors were pre-incubated with PD-L1-His (10 nM final) for 15 m in 4 μl of assay buffer, followed by addition of PD-1-Ig (20 nM final) in 1 μl of assay buffer and further incubation for 15 m. PD-L1 fusion proteins from either human, cynomologous macaques, mouse, or other species were used. HTRF detection was achieved using europium crypate-labeled anti-Ig monoclonal antibody (1 nM final) and allophycocyanin (APC) labeled anti-His monoclonal antibody (20 nM final). Antibodies were diluted in HTRF detection buffer and 5 μl was dispensed on top of binding reaction. The reaction was allowed to equilibrate for 30 minutes and signal (665 nm/620 nm ratio) was obtained using an EnVision fluorometer. Additional binding assays were established between PD-I-Ig/PD-L2-His (20 and 5 nM, respectively), CD80-His/PD-L1-Ig (100 and 10 nM, respectively) and CD80-His/CTLA4-Ig (10 and 5 nM, respectively). Binding/competition studies between biotinylated Compound No. 71 and human PD-L1-His were performed as follows. Macrocyclic peptide inhibitors were pre-incubated with PD-L1-His (10 nM final) for 60 minutes in 4 μl of assay buffer followed by addition of biotinylated Compound No. 71 (0.5 nM final) in 1 μl of assay buffer. Binding was allowed to equilibrate for 30 minutes followed by addition of europium crypated labeled Streptavidin (2.5 pM final) and APC-labeled anti-His (20 nM final) in 5 μl of HTRF buffer. The reaction was allowed to equilibrate for 30 m and signal (665 nm/620 nm ratio) was obtained using an EnVision fluorometer.
A general note: In TR-FRET formats the signal depends on donor and acceptor labels being close together.

B1: INT-130AE (peptide)
peptide: {CH2CO}-Y[NMeA]DP[Dap]L[Hyp]W[Dab][Trp(1-CH2CO)][NMeNle][NMeNle]ECG[Pra]-OH
modifications: thioether N-14
SMILES: C#CC[C@H](NC(=O)CNC(=O)[C@@H]1CSCC(=O)N[C@@H](Cc2ccc(O)cc2)C(=O)N(C)[C@@H](C)C(=O)N[C@@H](CC(=O)O)C(=O)N2CCC[C@H]2C(=O)N[C@@H](CN)C(=O)N[C@@H](CC(C)C)C(=O)N2C[C@H](O)C[C@H]2C(=O)N[C@@H](Cc2c[nH]c3ccccc23)C(=O)N[C@@H](CCN)C(=O)N[C@@H](Cc2cn(CC(=O)O)c3ccccc23)C(=O)N(C)[C@@H](CCCC)C(=O)N(C)[C@@H](CCCC)C(=O)N[C@@H](CCC(=O)O)C(=O)N1)C(=O)O
For B1, the half-inhibitory concentration (IC50) (in general, the concentration that inhibits the measured activity by half) fell in the range of 10 to 99 nM.

For {CH2CO}-Y[Pip]NP[Dap]L[Hyp]W[Dab][Trp(1-CH2CO)][NMeNle][NMeNle]LCG[Dab]([γGlu-C18 diacid]) (thioether N-14 (inferred)) [Example 13149], the concentration for half-maximal inhibition (IC50) was in the range of 10 to 99 nM.

B2: INT-130AD (peptide)
peptide: {CH2CO}-Y[NMeA]NP[Dap]L[Hyp]W[Dab][Trp(1-CH2CO)][NMeNle][NMeNle]ECG[Pra]-OH
modifications: thioether N-14
SMILES: C#CC[C@H](NC(=O)CNC(=O)[C@@H]1CSCC(=O)N[C@@H](Cc2ccc(O)cc2)C(=O)N(C)[C@@H](C)C(=O)N[C@@H](CC(N)=O)C(=O)N2CCC[C@H]2C(=O)N[C@@H](CN)C(=O)N[C@@H](CC(C)C)C(=O)N2C[C@H](O)C[C@H]2C(=O)N[C@@H](Cc2c[nH]c3ccccc23)C(=O)N[C@@H](CCN)C(=O)N[C@@H](Cc2cn(CC(=O)O)c3ccccc23)C(=O)N(C)[C@@H](CCCC)C(=O)N(C)[C@@H](CCCC)C(=O)N[C@@H](CCC(=O)O)C(=O)N1)C(=O)O
On to B2, for which the IC50 was in the range of 10 to 99 nM.

With {CH2CO}-[Phe(4-F)][Pip]DP[Dap]L[Hyp]W[Dab][Trp(1-CH2CO)][NMeNle][NMeNle]LCG[Pra″]([triazole-(S)‑18‑((3-azido-1-carboxypropyl)amino)‑18‑oxooctadecanoic acid]) (thioether N-14; also: residue 1 written Tyr(4-F)) [Example 14122], the IC50 was 10 to 99 nM.

{CH2CO}-Y[NMeA]DPHK[Hyp]WKW[NMeNle][NMeNle]ECG[Pra(3)]([triazole″-X2])D (thioether N-14; reading uncertain) [Example 14061]: the IC50 is 10 to 99 nM.

As for {CH2CO}-Y[NMeA]DPHK[Hyp]WK[Trp(1-CH2CO)][NMeNle][NMeNle]ECG[Pra′]([triazole-X1])D (thioether N-14) [Example 14071], the IC50 was 10 to 99 nM.

B3: Example 14086 (peptide)
peptide: YADPHKPWKWXXECGXD
modifications: as m110 (INT 1400E); Pra triazole-linked to vitamin E succinate 5-azidopentylamide
B3: the IC50 lay in the range of 10 to 99 nM.

Consider {CH2CO}-Y[NMeA]DPHK[Hyp]WKW[NMeNle][NMeNle]ECG[Pra′]([triazole-X1])D (thioether N-14) [Example 14065], for which the IC50 fell in the range of 10 to 99 nM.

{CH2CO}-Y[NMeA]NP[Dap]L[Hyp]WS[Trp(1-CH2CO)][NMeNle][NMeNle]LCG[Pra] (thioether N-14, also called Intermediate 1300X) [INT-1300X]: the IC50 was in the range of 10 to 99 nM.

B4: INT-1400I (peptide)
peptide: {CH2CO}-Y[NMeA]NP[Dap]L[Hyp]WS[Trp(1-CH2CO)][NMeNle][NMeNle]ECG[Pra]
modifications: thioether N-14; not fully specified (C-terminus); printed as ClAc-Tyr-mAla-Asn-Pro-Dap-Leu-Hyp-Trp-Ser-Trp(1-carboxymethyl)-mNle-mNle-E-Cys-Gly-[(S)-propargylglycine], cyclised ClAc-Cys
notes: also called Intermediate 1400I
As for B4, the IC50 lay in the range of 10 to 99 nM.

In the case of {CH2CO}-Y[NMeA]NP[Dap]L[Hyp]WS[Trp(1-CH2CO)][NMeNle][NMeNle]ECG[Pra′]([triazole-X1]) (thioether N-14) [Example 14070], the IC50 fell in the range of 10 to 99 nM.

B5: INT-1400L (peptide)
peptide: {CH2CO}-[F3Phe][NMeF][NMeNle][dHyp]DV[NMeF]D[dP]WYLCG[Pra]
modifications: thioether N-13; not fully specified (C-terminus); printed as ClAc-F3Phe-mPhe-mNle-dHyp-Asp-Val-mPhe-Asp-dPro-Trp-Tyr-Leu-Cys-Gly-[(S)-propargylglycine]
notes: also called Intermediate 1400L
As to B5, the IC50 is 10 to 99 nM.

B6: INT-130AA (peptide)
peptide: {CH2CO}-Y[NMeA]NP[Dap]L[Hyp]W[Dab][Trp(1-CH2CO)][NMeNle][NMeNle]LCGG[Pra]-OH
modifications: thioether N-14
SMILES: C#CC[C@H](NC(=O)CNC(=O)CNC(=O)[C@@H]1CSCC(=O)N[C@@H](Cc2ccc(O)cc2)C(=O)N(C)[C@@H](C)C(=O)N[C@@H](CC(N)=O)C(=O)N2CCC[C@H]2C(=O)N[C@@H](CN)C(=O)N[C@@H](CC(C)C)C(=O)N2C[C@H](O)C[C@H]2C(=O)N[C@@H](Cc2c[nH]c3ccccc23)C(=O)N[C@@H](CCN)C(=O)N[C@@H](Cc2cn(CC(=O)O)c3ccccc23)C(=O)N(C)[C@@H](CCCC)C(=O)N(C)[C@@H](CCCC)C(=O)N[C@@H](CC(C)C)C(=O)N1)C(=O)O
notes: also called Intermediate 130AA
Take B6: the IC50 lay within 10 to 99 nM.

B7: Example 14082 (peptide)
peptide: YADPHKPWKWXXECGX
modifications: as m115 (INT 1400J); Pra triazole-linked to vitamin E succinate 5-azidopentylamide
As to B7, the concentration for half-maximal inhibition (IC50) fell in the range of 10 to 99 nM.

B8: INT-1300W (peptide)
peptide: {CH2CO}-Y[NMeA]NP[Dap]L[Hyp]W[Dab][Trp(1-CH2CO)][NMeNle][NMeNle]LCG[Pra]
modifications: thioether N-14; not fully specified; printed as ClAc-Tyr-[N-Me]Ala-Asn-Pro-Dap-Leu-Hyp-Trp-Dab-Trp(1-carboxymethyl)-[N-Me]Nle-[N-Me]Nle-Leu-Cys-Gly-[(S)-propargylglycine]
For B8, the IC50 lay in the range of 10 to 99 nM.

On to {CH2CO}-[Tyr(Me)][Pip]DP[Dap]Q[Hyp]W[Dab][Trp(1-CH2CO)][NMeNle][NMeNle]ECG[Pra″]([triazole-(S)‑18‑((3-azido-1-carboxypropyl)amino)‑18‑oxooctadecanoic acid]) (thioether N-14) [Example 14121], for which the IC50 lay within 10 to 99 nM.

B9: Example 14124 (peptide)
peptide: {CH2CO}-F[Pip]DP[Dap]L[Hyp]W[Dab]W[NMeNle][NMeNle]LCGD
modifications: thioether N-14; not fully specified (residues 1, 10, 16, C-terminus); also: residue 1 written Tyr(4-F)
For B9, the IC50 fell in the range of 10 to 99 nM.

B10: INT-1300V (peptide)
peptide: {CH2CO}-Y[NMeA]NP[Dap]L[Hyp]W[Dab][Trp(1-CH2CO)][NMeNle][NMeNle]LCG[Pra]-OH
modifications: thioether N-14
SMILES: C#CC[C@H](NC(=O)CNC(=O)[C@@H]1CSCC(=O)N[C@@H](Cc2ccc(O)cc2)C(=O)N(C)[C@@H](C)C(=O)N[C@@H](CC(N)=O)C(=O)N2CCC[C@H]2C(=O)N[C@@H](CN)C(=O)N[C@@H](CC(C)C)C(=O)N2C[C@H](O)C[C@H]2C(=O)N[C@@H](Cc2c[nH]c3ccccc23)C(=O)N[C@@H](CCN)C(=O)N[C@@H](Cc2cn(CC(=O)O)c3ccccc23)C(=O)N(C)[C@@H](CCCC)C(=O)N(C)[C@@H](CCCC)C(=O)N[C@@H](CC(C)C)C(=O)N1)C(=O)O
Take B10: the half-maximal inhibitory concentration (IC50) was in the range of 10 to 99 nM.

In the case of {CH2CO}-Y[NMeA]DPHK[Hyp]WKW[NMeNle][NMeNle]ECG[Pra″]([triazole″-PEG8′-Suc-vitamin E])G (thioether N-14; reading uncertain) [Example 14052], the IC50 lay within 10 to 99 nM.

For {CH2CO}-[Phe(4-OMe)″][Pip]NPHL[Hyp]W[Dab][Trp(1-CH2CO)][NMeNle][NMeNle]LCG[Dab]([γGlu-C18 diacid]) (thioether N-14 (inferred)) [Example 13151], the IC50 is 10 to 99 nM.

B11: Example 14085 (peptide)
peptide: YADPHKPWKWXXECGX
modifications: as m102 (INT 1300Y); Pra triazole-linked to vitamin E succinate 5-azidopentylamide
As for B11, the half-inhibitory concentration (IC50) was 10 to 99 nM.
